Experimental data taken from publication doi:10.1101/2023.05.03.539133 (bioRxiv, 2023).

Assays:
AUC = target: the molecule itself; experiment: AUC
SEC = target: the molecule itself; experiment: SEC

B1: inner membrane cytochrome c ImcH from Geobacter sulfurreducens (recombinant, C-terminal 6x His-tag) (natural protein, UniProt Q747K6 1-507, looked up)
chain: MTLRKTAGYLWNPISLIGFLLAVVATGLIIAFIAMEMITGIDHPYIGLLVYFAFPGMLILGLILVPIGAWRVRNQRRTEVPEEVPPYPRVDFNDPHKRRLFIFFVLASVIFVLIVSVASILGFEFTESTTFCGELCHVVMEPEHKAWQGSPHARVKCVECHVGPGAEWYVKAKLSGLRQVWAVLTHSYHFPIATPIENLRPARDTCEQCHWPEKFYSGRQRVFYHYAPNKENTPREINMLIKIGGTPKSPHAMGIHWHIGTEVTYIARDRKRLDIPYVAVKQKDGSIVEYMDTEKPLTREEIAKAEKRRMDCIDCHNRPTHIYRSPAREMDEHIVSGQIDAGLPYIKKVAVEILEQPYKSKEEAHAAIEAKLPEYYAKNFPEVAKVKAAAINQAVAHVKDIYSRNFFPRMKVTWSTYPNHIGHFYTPGCFRCHDGKHKTSTGKIISKDCNMCHEMIGQKGENIPEGKVVKEFVHPADIGDALYNVNCSDCHMAAAEDSAGGEGPGKH
modifications: seven c-type hemes (CXXCH heme binding motifs)
stoichiometry N (AUC): 4
stoichiometry N (SEC): 2
